Test results taken from US20220195407, “OPTIMIZATION OF ENGINEERED MEGANUCLEASES FOR RECOGNITION SEQUENCES” (Precision BioSciences, Inc., published 2022).
Substitutions are numbered along the chain they refer to.

Legend:
Test in all cases: cell_activity; CHO iGFFP reporter
LOX 3-4m.1044 = molecular target: T1, LOX 3-4m.1044 (artificial (I-CreI derived))
T1 chain: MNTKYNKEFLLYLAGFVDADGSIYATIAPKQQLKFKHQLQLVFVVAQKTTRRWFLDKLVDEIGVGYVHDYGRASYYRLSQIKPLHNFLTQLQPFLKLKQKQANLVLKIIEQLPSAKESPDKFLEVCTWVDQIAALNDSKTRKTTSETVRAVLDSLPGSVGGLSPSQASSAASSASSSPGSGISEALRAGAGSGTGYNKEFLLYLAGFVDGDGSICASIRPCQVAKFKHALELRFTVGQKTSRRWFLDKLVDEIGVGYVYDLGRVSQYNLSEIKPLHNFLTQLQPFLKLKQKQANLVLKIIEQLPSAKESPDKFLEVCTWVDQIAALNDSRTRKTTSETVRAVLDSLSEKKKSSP
Text: (§1) A CHO cell reporter system (see WO/2012/167192, FIG. 3) was used to determine whether the engineered meganucleases generated in these studies could recognize and cleave the modified LOX 3-4 recognition sequences in Table 87. To perform the assay, a pair of CHO cell reporter lines were produced, which carried a non-functional Green Fluorescent Protein (GFP) gene expression cassette integrated into the genome of the cell. The GFP gene in each cell line was interrupted by a pair of recognition sequences such that intracellular cleavage of either recognition sequence by a meganuclease would stimulate a homologous recombination event resulting in a functional GFP gene. In both cell lines, one of the recognition sequences was derived from the LOX 3-4 recognition sequence (i.e., those sequences disclosed in Table 87), and the second recognition sequence was specifically recognized by a control meganuclease called “CHO 23/24.” CHO reporter cells comprising a recognition sequence derived from the LOX 3-4 recognition sequence and the CHO 23/24 recognition sequence are referred to herein as “test cells.”
(§2) Novel engineered meganucleases derived from the LOX 3-4x.109 meganuclease were prepared by making amino acid substitutions at one or more positions in the first subunit and one or more positions in the second subunit. These engineered meganucleases were then evaluated for cleavage of the LOX 3-4 recognition sequence modified to have an ACGA center sequence (SEQ ID NO: 68) in the CHO reporter assay according to Example 1.

LOX 3-4m.956 = molecular target: T2, LOX 3-4m.956 (artificial (I-CreI derived))
T2 chain: T1 chain with A19G, T50R, G210A, K239A, S241R, V264I, R330K
Text: as §1, §2

LOX 3-4m.1036 = molecular target: T3, LOX 3-4m.1036 (artificial (I-CreI derived))
T3 chain: T1 chain with T50R, K239Q, S241R, V264I, E271Q
Text: as §1, §2

LOX 3-4m.1013 = molecular target: T4, LOX 3-4m.1013 (artificial (I-CreI derived))
T4 chain: T1 chain with A19G, T50V, G210A, K239H, V264I, E271Q, R330K
Text: as §1, §2

LOX 3-4m.509 = molecular target: T5, LOX 3-4m.509 (artificial (I-CreI derived))
T5 chain: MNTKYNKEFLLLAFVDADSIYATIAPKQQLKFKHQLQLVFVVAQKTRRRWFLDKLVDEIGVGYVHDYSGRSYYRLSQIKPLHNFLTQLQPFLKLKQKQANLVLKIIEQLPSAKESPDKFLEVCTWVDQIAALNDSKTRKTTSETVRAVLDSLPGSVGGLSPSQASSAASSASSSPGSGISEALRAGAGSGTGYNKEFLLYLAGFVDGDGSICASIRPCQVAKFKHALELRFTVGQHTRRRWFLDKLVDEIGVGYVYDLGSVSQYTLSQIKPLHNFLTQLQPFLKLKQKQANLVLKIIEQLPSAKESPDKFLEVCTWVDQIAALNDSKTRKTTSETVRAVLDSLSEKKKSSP
Text: as §1
as §2, with “subunit. The N-terminal subunit recognizes the reverse complement of the AG portion of the four base pair center sequence, which is CT, and the C-terminal subunit recognizes the GC portion of the […] center sequence.” for “subunit.”, “a GCAG” for “an ACGA”, “326)” for “68)”, “1. The substitutions in each subunit are provided in Tables 180 and 181, respectively.” for “1.”

LOX 3-4m.524 = molecular target: T6, LOX 3-4m.524 (artificial (I-CreI derived))
T6 chain: T5 chain with S260R, V261T
Text: as §1
as §2, with “subunit. The N-terminal subunit recognizes the reverse complement of the AG portion of the four base pair center sequence, which is CT, and the C-terminal subunit recognizes the GC portion of the […] center sequence.” for “subunit.”, “a GCAG” for “an ACGA”, “326)” for “68)”, “1. The substitutions in each subunit are provided in Tables 180 and 181, respectively.” for “1.”

LOX 3-4m.494 = molecular target: T7, LOX 3-4m.494 (artificial (I-CreI derived))
T7 chain: T5 chain with H236K, R238Q
Text: as §1
as §2, with “subunit. The N-terminal subunit recognizes the reverse complement of the AG portion of the four base pair center sequence, which is CT, and the C-terminal subunit recognizes the GC portion of the […] center sequence.” for “subunit.”, “a GCAG” for “an ACGA”, “326)” for “68)”, “1. The substitutions in each subunit are provided in Tables 180 and 181, respectively.” for “1.”

LOX 3-4m.869 = molecular target: T8, LOX 3-4m.869 (artificial (I-CreI derived))
T8 chain: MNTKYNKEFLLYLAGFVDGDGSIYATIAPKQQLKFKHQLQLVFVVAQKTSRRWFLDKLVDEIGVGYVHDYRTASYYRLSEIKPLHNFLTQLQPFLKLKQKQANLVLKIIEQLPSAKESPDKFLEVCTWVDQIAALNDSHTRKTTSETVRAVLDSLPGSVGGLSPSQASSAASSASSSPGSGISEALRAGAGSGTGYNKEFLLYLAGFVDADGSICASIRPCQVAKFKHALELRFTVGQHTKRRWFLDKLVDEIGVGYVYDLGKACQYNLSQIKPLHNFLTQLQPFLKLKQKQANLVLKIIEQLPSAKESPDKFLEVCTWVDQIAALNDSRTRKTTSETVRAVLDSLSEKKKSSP
Text: as §1
as §2, with “sequence, which normally comprises” for “sequence modified to have”, “ACAT” for “ACGA”, “44)” for “68)”

LOX 3-4m.949 = molecular target: T9, LOX 3-4m.949 (artificial (I-CreI derived))
T9 chain: T1 chain with K48N, T50R, K239S, S241K, G262E, V264A, S265C, E271Q, R330K
Text: as §1
as §2, with “sequence, which normally comprises” for “sequence modified to have”, “ACAT” for “ACGA”, “44)” for “68)”

LOX 3-4m.925 = molecular target: T10, LOX 3-4m.925 (artificial (I-CreI derived))
T10 chain: T1 chain with A19G, T50R, G210A, K239H, S241G, V264G, S265C, E271Q, R330K
Text: as §1
as §2, with “sequence, which normally comprises” for “sequence modified to have”, “ACAT” for “ACGA”, “44)” for “68)”

LOX 3-4m.893 = molecular target: T11, LOX 3-4m.893 (artificial (I-CreI derived))
T11 chain: T1 chain with T50R, K239G, S241K, R263K, V264A, S265C, R330K
Text: as §1
as §2, with “sequence, which normally comprises” for “sequence modified to have”, “ACAT” for “ACGA”, “44)” for “68)”

B1: LOX 3-4 ACGA (dsDNA)
DNA 1: GTATAGCATACGATATACGAAG
DNA 2: CTTCGTATATCGTATGCTATAC
- activity (LOX 3-4m.1044): 5.8 % GFP
- activity (LOX 3-4m.956): 4.7 % GFP
- activity (LOX 3-4m.1036): 5 % GFP
- activity (LOX 3-4m.1013): 1.7 % GFP

B2: LOX 3-4 GCAG (dsDNA)
DNA 1: GTATAGCATGCAGTATACGAAG
DNA 2: CTTCGTATACTGCATGCTATAC
- activity (LOX 3-4m.509): 13.4 % GFP
- activity (LOX 3-4m.524): 16.6 % GFP
- activity (LOX 3-4m.494): 13.8 % GFP

B3: LOX 3-4 ACAT (native LOX 3-4 site, SEQ 6) (dsDNA)
DNA 1: GTATAGCATACATTATACGAAG
DNA 2: CTTCGTATAATGTATGCTATAC
- activity (LOX 3-4m.869): 11.2 % GFP
- activity (LOX 3-4m.949): 12.5 % GFP
- activity (LOX 3-4m.925): 12.2 % GFP
- activity (LOX 3-4m.893): 13.1 % GFP
